B1: LINE1-full (parent)
chain: UACGUAGGUGGUUUUCCCCUGAUAGUGCUAAGGGGGCCUGGAAGUUUGGACUGGGCAGAGCUCAACACAGCGUGGCAAAGUGGCUGUGGCUAGACUGCCUCUCUGGAUUCCUCGUCACUCAGCAGGGCAUCUCUGAGAGAAAUGCC

The variants in the data set derive from B1. In words: self-cleavage, relative activity (ratio to wild type); higher = more cleavage; in vitro, sequencing; the parent is a self-cleaving ribozyme.
Turning to UACGUAGGUGGUUUUCCCCUGAUAGUGCUAAGGGUGCCUGGAAGUUUGGACUGGGCAGAGCUCAACACAGCGUGCCAAAGUGGCUGUGGCUAGACUGCCUCUCUGGAUUCCUCGUCACUCAGCAGGGCAUCUCUGAGAGAAAUGCC, the self-cleavage amounted to 0.77.

For UACGUAGGUGGUUUUCCCCUGAUAGUGCUAAGGGAGCCUGGAAGUUUGGACUGGGCAGAGCUCAACACAGCGCGGCAAAGUGGCUGUGGCUAGACUGCCUCUCUGGAUUCCUCGUCACUCAGCAGGGCAUCUCUGAGAGAAAUGCC, the self-cleavage was found to be 1.19.

UACGUAGGUGGUUUUCCCCUGAUAGUGCUAAGGGCGCCUGGAAGUUUGGACUGGGCAGAGCUCAACACAGCGUGGCAAAGUGGCCGUGGCUAGACUGCCUCUCUGGAUUCCUCGUCACUCAGCAGGGCAUCUCUGAGAGAAAUGCC: the self-cleavage was determined as 0.22.

UACGUAGGUGGUUUUCCCCUGAUAGUGCUAAGGGUGCCUGGAAGUUUGGACUGGGCAGAGCUCAACACAGCGUGGCAAAGUGGCUGUGGCUAGACUGCCUCUCUGGAUUCCUCGUCACUCAGCUGGGCAUCUCUGAGAGAAAUGCC: the self-cleavage was found to be 1.41.

As for UACGUAGGUGGUUUUCCCCUGAUAGUGCUAAGGGUGCCUGGAAGUUUGGACUGGGCAGAGCUCAACACAGCGUGGCAAAGUGGCUGUGGCUAGACUGCCCCUCUGGAUUCCUCGUCACUCAGCAGGGCAUCUCUGAGAGAAAUGCC, the self-cleavage amounted to 1.85.

As for UACGUAGGUGGUUUUCCCCUGAUAGUGCUAAGGGUGCCUGGAAGUUUGGACUGGGCAGAGCUCAACACAGCGUGGCAAAGUGGCUGUGGCUAGACUGCCUCUCUGGAUUCCUCGUCACUCAGCAGGGCAUCUCCGAGAGAAAUGCC, the self-cleavage came out at 1.12.

For the variant UACGUAGGUGGUUUUCCCCUGAUAGUGCUAAGGGAGCCUGGAAGUUUGGACUGGGCAGAGCUCAACACAGCGUGGCAAAGUGGCUGUGGCUAGACCGCCUCUCUGGAUUCCUCGUCACUCAGCAGGGCAUCUCUGAGAGAAAUGCC, the self-cleavage was 0.09.

Regarding UACGUAGGUGGUUUUCCCCUGAUAGUGCUAAGGGUGCCUGGAAGUUUGGACAGGGCAGAGCUCAACACAGCGUGGCAAAGUGGCUGUGGCUAGACUGCCUCUCUGGAUUCCUCGUCACUCAGCAGGGCAUCUCUGAGAGAAAUGCC, the self-cleavage worked out at 0.51.

Regarding UACGUAGGUGGUUUUCCCCUGAUAGUGCUAAGGGUGCCUGGAAGUUUGGACUGGGCAGAGCUCAACACAGCGUGGCAAAGUGGCUGCGGCUAGACUGCCUCUCUGGAUUCCUCGUCACUCAGCAGGGCAUCUCUGAGAGAAAUGCC, the self-cleavage worked out at 0.14.

Take UACGUAGGUGGUUUUCCCCUGAUAGUGCUAAGGGUGCCUGGAAGUUUGGACUGGGCAGAGCUCAACACAGCGUGGCAAAGUGGCUGUGGCUAGGCUGCCUCUCUGGAUUCCUCGUCACUCAGCAGGGCAUCUCUGAGAGAAAUGCC: the self-cleavage was found to be 0.19.

For UACGUAGGUGGUUUUCCCCUGAUAGUGCUAAGGGAGCCUGGAAGUUUGGACUGGGCAGAGCUCAACACAGCGUGGCAAAGUGGCUGUGGCUAGACUGCCUCUCUGGACUCCUCGUCACUCAGCAGGGCAUCUCUGAGAGAAAUGCC, the self-cleavage is 1.11.

Take UACGUAGGUGGUUUUCCCCUGAUAGUGCUAAGGGAGCCUGGAAGUUUGGACUGGGCAGAGCUCAACACAGCGUGGCAAAGUGGCUGUGGCUAGACUGCCUCUCUGGAUUCCUCGCCACUCAGCAGGGCAUCUCUGAGAGAAAUGCC: the self-cleavage turned out to be 1.03.

For UACGUAGGUGGUUUUCCCCUGAUAGUGCUAAGGGAGCCUGGAAGUUUGGACUGGGCAGAGCUCAACACAGCGUGGCAAAGUGGCUGUGGCUAGACUGCCUCUCUGGAUUCCUCGACACUCAGCAGGGCAUCUCUGAGAGAAAUGCC, the self-cleavage was determined as 1.17.

For UACGUAGGUGGUUUUCCCCUGAUAGUGCUAAGGGCGCCUGGAAGUUUGGACUGGGCAGAGCUCAACGCAGCGUGGCAAAGUGGCUGUGGCUAGACUGCCUCUCUGGAUUCCUCGUCACUCAGCAGGGCAUCUCUGAGAGAAAUGCC, the self-cleavage was determined as 0.22.

On to UACGUAGGUGGUUUUCCCCUGAUAGUGCUAAGGGCGCCUGGAAGUUUGGACUGGGCAGAGCUCAACACAGCGUGGCAAAGUGGCUGUGGCUAGACUGCCUCUCUGGAUUCCUCGUCACUCAGCAGGGCAUCUCAGAGAGAAAUGCC, for which the self-cleavage was determined as 0.71.

Turning to UACGUAGGUGGUUUUCCCCUGAUAGUGCUAAGGGCGCCUGGAAGUUUGGACUGGGCAGAGCUCAACACAGCGUGGCAAAGUGGCUGUGGCUAGACUGCCUCUCUGGAUUCCUCGUCACCCAGCAGGGCAUCUCUGAGAGAAAUGCC, the self-cleavage stood at 1.98.

Take UACGUAGGUGGUUUUCCCCUGAUAGUGCUAAGGGAGCCUGGAAGUUUGGACUGGGCAGAGCUCAACACAGCGUGGCAAAGUGGCUGUGGCUAGACUGCCUCUCUGGAUUCCUCGUCACUCAGCAGGGCAUCUCGGAGAGAAAUGCC: the self-cleavage stood at 0.47.

Consider UACGUAGGUGGUUUUCCCCUGAUAGUGCUAAGGGAGCCUGGAAGUUUGGACUGGGCAGAGCUCAACACAGCGUGGCAAAGUGGCUGUGGCUAGACUGCCUCUCUGGAUUCCUCGUCACUCAGCAGGGCAUCUCCGAGAGAAAUGCC, for which the self-cleavage is 0.92.

Consider UACGUAGGUGGUUUUCCCCUGAUAGUGCUAAGGGCGCCUGGAAGUUUGGACUGGGCAGAGCUCAACACAGCGUGGCAAAGUGGCUGUGGCUAGACUGCCUCUCUGGAUUCCUCGUCACUCAGCAGGGCAUCCCUGAGAGAAAUGCC, for which the self-cleavage was 1.53.

In the case of UACGUAGGUGGUUUUCCCCUGAUAGUGCUAAGGGAGCCUGGAAGUUUGGACUGGGCAGAGCUCAACACAGCGUGGCAAAGUGGCUGUGGCUAGACUGCCACUCUGGAUUCCUCGUCACUCAGCAGGGCAUCUCUGAGAGAAAUGCC, the self-cleavage came to 0.31.

With UACGUAGGUGGUUUUCCCCUGAUAGUGCUAAGGGGACCUGGAAGUUUGGUCUGGGCAGAGCUCAACACAGCGUGGCAAAGUGGCUGUGGCUAGACUGCCUCUCUGGAUUCCUCGUCACUCAGCAGGGCAUCUCUGAGAGAAAUGCC, the self-cleavage was found to be 1.16.

With UACGUAGGUGGUUUUCCCCUGAUAGUGCUAAGGGAGCCUGGAAGUUUGGACUGGGCAGAGCUCAACACAGCGUGGCAAAGUGGCUGUGGCUAGACUGCCUCUCUGGAUUCCUCGUCACUCAGCAGGGCACCUCUGAGAGAAAUGCC, the self-cleavage came to 0.96.

As to UACGUAGGUGGUUUUCCCCUGAUAGUGCUAAGGGUGCCUGGAAGUUUGGACUGGGCAGAGCUCAACACAGCGUGGCAUAGUGGCUGUGGCUAGACUGCCUCUCUGGAUUCCUCGUCACUCAGCAGGGCAUCUCUGAGAGAAAUGCC, the self-cleavage is 2.1.

Consider UACGUAGGUGGUUUUCCCCUGAUAGUGCUAAGGGCGCCUGGAAGUUUGGACUGGGCAGAGCUCAACACAGCGUGGCAAAGUGGCUGUGGCUAGACCGCCUCUCUGGAUUCCUCGUCACUCAGCAGGGCAUCUCUGAGAGAAAUGCC, for which the self-cleavage amounted to 0.26.

For the variant UACGUAGGUGGUUUUCCCCUGAUAGUGCUAAGGGUGCCUGGAAGUUUGGACUGGGCAGAGCUCAACACAGCGUGGCAAAGUGGCUGUGGCUAGACUGCCUCUCAGGAUUCCUCGUCACUCAGCAGGGCAUCUCUGAGAGAAAUGCC, the self-cleavage is 1.31.

UACGUAGGUGGUUUUCCCCUGAUAGUGCUAAGGGAGCCUGGAAGUUUGGACUGGGCAGAGCUCAACACAGCGUGGCAAAGUGGCUGUGGCUAGACUGCCUCUCCGGAUUCCUCGUCACUCAGCAGGGCAUCUCUGAGAGAAAUGCC: the self-cleavage worked out at 1.42.

Take UACGUAGGUGGUUUUCCCCUGAUAGUGCUAAGGGUGCCUGGAAGUUUGGACUGGGCAGAGCUCAACACAGCGUGGCAAAGUGGCUGUGGCUAGACUGCCUCUCUGGAUUCCUCGUCACUCAGCAGGGCAUCUCUGAGAGGAAUGCC: the self-cleavage is 1.21.

As to UACGUAGGUGGUUUUCCCCUGAUAGUGCUAAGGGUGCCUGGAAGUUUGGACUGGGCAGAGCUCAACACAGCGUGGCAAAGUGGCUGUGGCUAGACUGCCUCUCUGGAUUCCUCGUCACUCAGCAGGGCAUCUCUGAGAGUAAUGCC, the self-cleavage is 1.19.

In the case of UACGUAGGUGGUUUUCCCCUGAUAGUGCUAAGGGGACCUGGAAGUUUGGACUGGGCAGAGCUCAACACAGCGUGGCAAAGUGGCUGUGGCUAGACUGCCUCUCUGGAUUCCUCGUCACUCAGCAGGGCAUCUCUGAGAGAAAUGCC, the self-cleavage stood at 1.16.

Take UACGUAGGUGGUUUUCCCCUGAUAGUGCUAAGGGCGCCUGGAAGUUUGGACUGGGCAGGGCUCAACACAGCGUGGCAAAGUGGCUGUGGCUAGACUGCCUCUCUGGAUUCCUCGUCACUCAGCAGGGCAUCUCUGAGAGAAAUGCC: the self-cleavage was found to be 0.19.

With UACGUAGGUGGUUUUCCCCUGAUAGUGCUAAGGGUGCCUGGAAGUUUGGACUGGGCAGAGCUCAACACAGCGUGGCAAAGUGGCUGUGGCUAGACUGCCUCUCUGGAUUCCUCGUCACUCAGCAGGACAUCUCUGAGAGAAAUGCC, the self-cleavage worked out at 1.22.

For the variant UACGUAGGUGGUUUUCCCCUGAUAGUGCUAAGGGAGCCUGGAAGUUUGGACUGGGCAGAGCUCAACACAGCGUGGCAAAGUGGCUGAGGCUAGACUGCCUCUCUGGAUUCCUCGUCACUCAGCAGGGCAUCUCUGAGAGAAAUGCC, the self-cleavage turned out to be 0.08.

Regarding UACGUAGGUGGUUUUCCCCUGAUAGUGCUAAGGGGACCUGGAAGUUUGGACUGGGCGGAGCUCAACACAGCGUGGCAAAGUGGCUGUGGCUAGACUGCCUCUCUGGAUUCCUCGUCACUCAGCAGGGCAUCUCUGAGAGAAAUGCC, the self-cleavage was 1.52.

Consider UACGUAGGUGGUUUUCCCCUGAUAGUGCUAAGGGUGCCUGGAGGUUUGGACUGGGCAGAGCUCAACACAGCGUGGCAAAGUGGCUGUGGCUAGACUGCCUCUCUGGAUUCCUCGUCACUCAGCAGGGCAUCUCUGAGAGAAAUGCC, for which the self-cleavage was 1.93.

Take UACGUAGGUGGUUUUCCCCUGAUAGUGCUAAGGGCGCCUGGAAGUUCGGACUGGGCAGAGCUCAACACAGCGUGGCAAAGUGGCUGUGGCUAGACUGCCUCUCUGGAUUCCUCGUCACUCAGCAGGGCAUCUCUGAGAGAAAUGCC: the self-cleavage is 1.84.

On to UACGUAGGUGGUUUUCCCCUGAUAGUGCUAAGGGUGCCUGGAAGUUUGGACUGGGCAGAGCUCAACACAGCGUGGCAAAGUGGCUGUGGCUAGACUGCCUCUCUGGAUUUCUCGUCACUCAGCAGGGCAUCUCUGAGAGAAAUGCC, for which the self-cleavage worked out at 1.51.

As for UACGUAGGUGGUUUUCCCCUGAUAGUGCUAAGGGUGCCUGGAAGUUUGGACUGGGCAGAGCUCAACACAGCGUGGCAAAGUGGCUGUGGCUAGACUGCCUCUCUGGAUUCCUUGUCACUCAGCAGGGCAUCUCUGAGAGAAAUGCC, the self-cleavage is 1.09.

For the variant UACGUAGGUGGUUUUCCCCUGAUAGUGCUAAGGGUGCCUGGAAGUUUGGACUGGGCAGAGCUCAACGCAGCGUGGCAAAGUGGCUGUGGCUAGACUGCCUCUCUGGAUUCCUCGUCACUCAGCAGGGCAUCUCUGAGAGAAAUGCC, the self-cleavage was 0.35.

In the case of UACGUAGGUGGUUUUCCCCUGAUAGUGCUAAGGGUGCCUGGAAGUUUGGACUGGGCAGAGCUCAACACAGCGUGGCAAAGUGGCUGUGGCUAGACUGCCUCUCUGGAUUCCUCGUCACUCAGCAGGGCAUCUCUGAGAGAAAAGCC, the self-cleavage was found to be 1.56.

The values are drawn from the RNAGym collection of RNA variant scans (doi:10.7554/elife.90254).
